In article PMC3913574 one finds cell spreading assay: average surface area of MDCK+CADM1-GFP cells on CADM1-EC-Fc-coated glass against the same cells on control IgG data, which are given here for one molecule.

For this assay, the target named is T1, recombinant CADM1-EC-Fc protein consisting of the extracellular fragment domain of CADM1 fused to the Fc region of mouse IgG (UniProt Q9BY67).
T1 sequence: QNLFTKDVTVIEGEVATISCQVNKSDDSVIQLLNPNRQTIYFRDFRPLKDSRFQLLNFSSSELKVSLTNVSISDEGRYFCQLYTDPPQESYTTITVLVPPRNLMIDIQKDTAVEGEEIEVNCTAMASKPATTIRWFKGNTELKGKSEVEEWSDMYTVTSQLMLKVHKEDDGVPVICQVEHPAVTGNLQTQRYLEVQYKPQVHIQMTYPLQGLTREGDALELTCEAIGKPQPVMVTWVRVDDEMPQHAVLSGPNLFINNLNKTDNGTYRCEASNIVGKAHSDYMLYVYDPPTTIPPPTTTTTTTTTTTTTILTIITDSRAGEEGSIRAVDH

B1: CADM1-GFP on MDCK cells (MDCK+CADM1-GFP) (natural protein)
chain: QNLFTKDVTVIEGEVATISCQVNKSDDSVIQLLNPNRQTIYFRDFRPLKDSRFQLLNFSSSELKVSLTNVSISDEGRYFCQLYTDPPQESYTTITVLVPPRNLMIDIQKDTAVEGEEIEVNCTAMASKPATTIRWFKGNTELKGKSEVEEWSDMYTVTSQLMLKVHKEDDGVPVICQVEHPAVTGNLQTQRYLEVQYKPQVHIQMTYPLQGLTREGDALELTCEAIGKPQPVMVTWVRVDDEMPQHAVLSGPNLFINNLNKTDNGTYRCEASNIVGKAHSDYMLYVYDPPTTIPPPTTTTTTTTTTTTTILTIITDSRAGEEGSIRAVDHAVIGGVVAVVVFAMLCLLIILGRYFARHKGTYFTHEAKGADDAADADTAIINAEGGQNNSEEKKEYFI
Take B1: the cell spreading assay: average surface area of MDCK+CADM1-GFP cells on CADM1-EC-Fc-coated glass against the same cells on control IgG came out at 1.8 fold.
